Source: patent US20260250320A1, “LIPIDATED PEPTIDE INHIBITORS OF INTERLEUKIN-23 RECEPTOR” (Janssen Pharmaceutica NV, priority 2023, published 2026)
*1 amine or outer side, *2 acyl side, *3 side chain or, on linkers, in order; H or OH if unused. Bridges are numbered along the chain shown (N, C = ends). Primed or numbered codes have the meaning given here. Where no end group is shown, it is not given here. Side-chain parts run from the residue outwards. [ ]: non-standard residue; d: D form. K(d) = (2R)-2-(4-((5-amino-5-carboxypentyl)amino)-4-oxobutanamido)-3-carboxy-N,N,N-trimethylpropan-1-aminium, C[N+](C)(C)C[C@@H](CC(=O)[*:3])NC(=O)CCC(=O)NCCCC[C@H](N[*:1])C(=O)[*:2]; Trp(7-Me) = Cc1cccc2c(C[C@H](N)C(=O)O)c[nH]c12; γGlu = O=C(O)[C@H](CCC(=O)[*:2])N[*:1]; 2Nal = N[C@@H](Cc1ccc2ccccc2c1)C(=O)O; AEF = NCCOc1ccc(C[C@H](N)C(=O)O)cc1; 3Pal = N[C@@H](Cc1cccnc1)C(=O)O; NMecPEG3a = not defined here; Pen = CC(C)(S)[C@H](N)C(=O)O; PEG2(3) = not defined here; PEG12′ = not defined here; PEG2″ = PEG2 spacer unit; Thp = NC1(C(=O)O)CCOCC1; Sar = CNCC(=O)O

Key:
[1] = target: T1, interleukin-23 receptor (IL-23R) (UniProt Q5VWK5 24-629, limits assumed); assay: cell-based or functional assay
T1 sequence (looked up): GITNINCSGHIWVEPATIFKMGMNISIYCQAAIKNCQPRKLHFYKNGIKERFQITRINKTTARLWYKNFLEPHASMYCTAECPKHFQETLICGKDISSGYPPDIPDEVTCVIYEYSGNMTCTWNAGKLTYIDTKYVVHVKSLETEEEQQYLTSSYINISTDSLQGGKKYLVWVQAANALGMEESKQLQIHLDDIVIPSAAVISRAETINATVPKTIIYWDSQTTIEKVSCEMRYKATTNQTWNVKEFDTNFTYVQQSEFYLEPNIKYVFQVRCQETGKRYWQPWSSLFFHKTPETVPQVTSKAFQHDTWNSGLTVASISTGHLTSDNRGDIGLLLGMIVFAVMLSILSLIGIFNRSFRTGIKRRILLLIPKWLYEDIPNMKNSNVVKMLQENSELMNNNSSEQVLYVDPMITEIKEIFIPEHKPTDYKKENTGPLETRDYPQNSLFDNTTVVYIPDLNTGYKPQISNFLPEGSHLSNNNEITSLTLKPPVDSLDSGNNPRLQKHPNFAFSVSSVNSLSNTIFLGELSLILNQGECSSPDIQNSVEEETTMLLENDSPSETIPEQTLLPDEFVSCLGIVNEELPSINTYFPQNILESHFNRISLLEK

[2] = target: T1, interleukin-23 receptor (IL-23R); assay: cell-based or functional assay; remark: listed apart in the source

Q: For RXNTWXXXXXENXX (C12gEPEG2PEG2CO-r-Abu(1)-N-T-W-K(Ac)-aMeC(1)-AEF-2Nal-THP-E-N-3Pya-Sar-CONH2) [SEQ ID NO: 5], which “IC50, IL23R reporter assay” value [1] is on record?
A: < 50 nM

Q: With cPEG3aCO-[dR][Pen]NT[Trp(7-Me)]K(Ac)[Pen][AEF][2Nal][Thp]EN[3Pal][Sar]K([PEG2(3)-PEG2(3)-γGlu-C18OH])-NH2 (disulfide 2-7 (inferred)) [SEQ ID NO: 160] as the binder, how does the “PBMC pSTAT3 IC50” value [2] read?
A: < 0.5 nM

Q: For Ac-[dR][Pen]K([PEG2(3)-PEG2(3)-γGlu-C18OH])T[Trp(7-Me)]K(Ac)[Pen][AEF][2Nal][Thp][K(d)]N[3Pal][Sar]-NH2 (disulfide 2-7 (inferred)) [SEQ ID NO: 12], which “IC50, IL23R reporter assay” value [1] is on record?
A: < 50 nM

B1: SEQ ID NO: 147 (peptide)
peptide: XNTXXXXXXENXX
modifications: not fully specified; MeCO-Pen(3)-N-T-7MeW-K(Ac)-Pen(3)-AEF-2Nal-THP-E-N-3Pya-Sar-CO(PEG2PEG2gEC18OH)
Q: Which “IC50, IL23R reporter assay” value [1] does the source give for B1 here?
A: ≥ 500 nM

B2: SEQ ID NO: 10 (peptide)
peptide: Ac-[dR][Pen][K(d)]T[Trp(7-Me)]K(Ac)[Pen][AEF][2Nal][Thp]EN[3Pal][Sar]-NH2
modifications: disulfide 2-7 (inferred); not fully specified (residue 8); printed as MeCO-r-Pen(3)-K(d)-T-7MeW-K(Ac)-Pen(3)-AEF(PEG2PEG2gEC18OH)-2Nal-THP-E-N-3Pya-Sar-CONH2
Q: Which “IC50, IL23R reporter assay” value [1] does the source give for B2 here?
A: < 50 nM

B3: SEQ ID NO: 66 (peptide)
peptide: Ac-[dR][Pen]K([PEG2″-PEG2″-γGlu-C18OH])T[Trp(7-Me)]K(Ac)[Pen][AEF][2Nal][Thp]EN[3Pal][Sar]
modifications: disulfide 2-7 (inferred); not fully specified (C-terminus); printed as MeCO-r-Pen(3)-K(PEG2PEG2gEC18OH)-T-7MeW-K(Ac)-Pen(3)-AEF-2Nal-THP-E-N-3Pya-Sar-CONH(PEG3a)
Q: With B3 as the binder, how does the “IC50, IL23R reporter assay” value [1] read?
A: ≥ 500 nM

B4: SEQ ID NO: 64 (peptide)
peptide: XNTXXXXXXKNXX
modifications: not fully specified; MeCO-Pen(3)-N-T-7MeW-K(Ac)-Pen(3)-AEF-2Nal-THP-K(PEG2PEG2gEC18OH)-N-3Pya-Sar-CONH(PEG3a)
Q: Which “IC50, IL23R reporter assay” value [1] does the source give for B4 here?
A: ≥ 500 nM

B5: SEQ ID NO: 1 (peptide)
peptide: XNTXXXXXXENXXK
modifications: MeCO-Pen(3)-N-T-7MeW-K(Ac)-Pen(3)-AEF-2Nal-THP-E-N-3Pya-Sar-K(Sar-S-Sar-S-Sar-S-Sar-C14)-CONH2
Q: B5 was tested. Which “IC50, IL23R reporter assay” value [1] did it give?
A: < 50 nM

B6: SEQ ID NO: 74 (peptide)
peptide: Ac-[dR][Pen]K([PEG2″-PEG2″-γGlu-C18OH])T[Trp(7-Me)]K(Ac)[Pen][AEF][2Nal][Thp]K(NMecPEG3a)N[3Pal][Sar]-NH2
modifications: disulfide 2-7 (inferred); reading uncertain; also: printed as MeCO-r-Pen(3)-K(PEG2PEG2gEC18OH)-T-7MeW-K(Ac)-Pen(3)-AEF-2Nal-THP-K(NMecPEG3a)-N-3Pya-Sar-CONH2
Q: What does the source list for B6?
A: IC50, IL23R reporter assay [1]: < 50 nM; PBMC pSTAT3 IC50 [2]: < 0.5 nM

Q: XNTXXXXXXKNXX (MeCO-Pen(3)-N-T-7MeW-K(Ac)-Pen(3)-AEF-2Nal-THP-K(PEG12gEC20OH)-N-3Pya-Sar-CONH2) [SEQ ID NO: 162] was tested. Which “PBMC pSTAT3 IC50” value [2] did it give?
A: < 0.5 nM

B7: SEQ ID NO: 65 (peptide)
peptide: Ac-[dR][Pen]NT[Trp(7-Me)]K([PEG2″-PEG2″-γGlu-C18OH])[Pen][AEF][2Nal][Thp]EN[3Pal][Sar]
modifications: disulfide 2-7 (inferred); not fully specified (C-terminus); printed as MeCO-r-Pen(3)-N-T-7MeW-K(PEG2PEG2gEC18OH)-Pen(3)-AEF-2Nal-THP-E-N-3Pya-Sar-CONH(PEG3a)
Q: Which “IC50, IL23R reporter assay” value [1] does the source give for B7 here?
A: ≥ 500 nM

Q: For Ac-[dR][Pen]NT[Trp(7-Me)]K(Ac)[Pen][AEF][2Nal][Thp]K([PEG12′-γGlu-C18OH])N[3Pal][Sar]-NH2 (disulfide 2-7 (inferred)) [SEQ ID NO: 146], which “PBMC pSTAT3 IC50” value [2] is on record?
A: < 0.5 nM
